We go through two molecules from patent US8309523 (VIB VZW, dated 2012).

Numbering of substitutions follows the chain as printed.

In assay [1] the target is T1, MALT1 (wild type, Flag- and Avi-tagged bio-construct) (human, UniProt Q9UDY8 1-824, Avi-tag biotinylated in vivo by co-expressed BirA).
T1 construct: also called paracaspase; bio-IP purified MALT1
T1 sequence (looked up): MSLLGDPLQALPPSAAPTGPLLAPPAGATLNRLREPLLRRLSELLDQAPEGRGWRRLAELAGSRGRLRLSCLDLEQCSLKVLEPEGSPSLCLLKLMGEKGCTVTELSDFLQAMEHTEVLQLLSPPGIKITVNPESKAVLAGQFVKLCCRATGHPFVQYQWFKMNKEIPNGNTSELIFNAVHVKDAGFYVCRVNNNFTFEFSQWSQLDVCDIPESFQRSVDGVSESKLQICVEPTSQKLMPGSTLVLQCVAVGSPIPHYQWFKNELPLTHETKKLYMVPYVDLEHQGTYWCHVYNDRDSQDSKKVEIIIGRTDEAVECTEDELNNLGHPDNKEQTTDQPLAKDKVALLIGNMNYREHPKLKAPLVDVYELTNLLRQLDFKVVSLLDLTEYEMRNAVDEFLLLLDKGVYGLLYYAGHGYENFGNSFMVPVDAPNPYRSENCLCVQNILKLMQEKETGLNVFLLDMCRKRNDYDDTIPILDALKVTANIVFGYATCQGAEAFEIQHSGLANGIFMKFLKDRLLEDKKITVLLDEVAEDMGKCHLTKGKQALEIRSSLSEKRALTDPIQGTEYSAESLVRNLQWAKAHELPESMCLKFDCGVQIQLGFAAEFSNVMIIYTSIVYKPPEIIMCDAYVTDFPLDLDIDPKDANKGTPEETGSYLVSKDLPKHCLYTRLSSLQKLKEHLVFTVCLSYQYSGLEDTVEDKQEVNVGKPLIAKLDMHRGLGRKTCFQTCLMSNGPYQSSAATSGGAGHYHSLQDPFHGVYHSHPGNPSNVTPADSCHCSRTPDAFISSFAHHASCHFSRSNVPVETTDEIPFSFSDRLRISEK
The assay is described as follows: immunoblots of bio-IPs from Jurkat cells with stable expression. A general note: In western blotting, separated proteins are transferred to a membrane and probed.

The next assay addresses T2, p76 T6Ig-m (E313A/E316A) (human, UniProt Q9UDY8 150-824, Avi-tag biotinylated in vivo by co-expressed BirA).
T2 construct: domain: p76 cleavage fragment
T2 sequence (looked up): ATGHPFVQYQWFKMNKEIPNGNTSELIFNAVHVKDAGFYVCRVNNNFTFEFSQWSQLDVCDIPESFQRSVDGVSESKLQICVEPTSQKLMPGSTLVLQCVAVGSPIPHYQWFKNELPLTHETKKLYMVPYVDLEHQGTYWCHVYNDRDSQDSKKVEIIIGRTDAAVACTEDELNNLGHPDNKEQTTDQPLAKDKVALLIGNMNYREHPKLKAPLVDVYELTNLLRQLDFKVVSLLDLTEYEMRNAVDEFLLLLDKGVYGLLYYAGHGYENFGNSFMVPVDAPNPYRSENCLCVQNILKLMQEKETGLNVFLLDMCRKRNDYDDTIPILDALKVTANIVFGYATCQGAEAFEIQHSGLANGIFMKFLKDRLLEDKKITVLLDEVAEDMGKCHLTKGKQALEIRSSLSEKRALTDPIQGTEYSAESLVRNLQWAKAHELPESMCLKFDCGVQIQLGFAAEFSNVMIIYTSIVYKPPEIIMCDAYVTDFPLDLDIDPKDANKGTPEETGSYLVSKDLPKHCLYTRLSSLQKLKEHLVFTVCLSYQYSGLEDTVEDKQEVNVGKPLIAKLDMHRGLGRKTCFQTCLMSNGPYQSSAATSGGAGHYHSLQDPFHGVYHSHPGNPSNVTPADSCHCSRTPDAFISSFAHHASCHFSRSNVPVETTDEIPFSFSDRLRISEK
The assay can be described thus: bio-IP from HEK293T cells, anti-TRAF6 immunoblot. An excerpt:
(§1) FIG. 5: p76 activates NFκB via TRAF6. […] Panel B) TRAF6 mediates NFκB signaling by p76. Top: NFκB-reporter assays of HEK293T cells transiently expressing MALT1, p76 and mutants or MALT1-C. Bottom: MALT1, p76 or MALT1-C, transiently expressed in HEK293T cells, were purified via bio-IPs and immunoblotted with anti-MALT1 (to show equal expression), anti-TRAF6 and anti-BCL10. Panel C) p76 induces polyubiquitination of IKKγ. Immunoblot analysis of bio-IP and IKKγ-IP of 293T cells transfected with pcD-F-IKKγ and pcd-HA-Ub in combination with indicated Avi-tagged MALT1 constructs. Panel D) BCL10 is not involved in NFκB signaling by p76. NFκB reporter assays of HEK-293T cells transfected with siRNA duplexes against MALT1, BCL10 or GFP (as control) followed by transient transfection with p76. The expression levels were determined by immunoblot with anti-MALT1 and anti-BCL10. NFκB-dependent luciferase activity […] is shown as fold induction of vector-transfected cells and represents the mean+/−S.D. of three independent experiments.
(§2) NFκB activation by MALT1 requires TRAF6 binding via two distinct sites (19), which are both present in the p76 cleavage fragment. Mutation of one TRAF6 binding site, either E313A/E316A (T6Ig-m) or E806A (T6C-m), abolished the potential of p76 to activate NFκB signaling in 293T cells (FIG. 5, Panel B). […] Furthermore, NFκB activation by p76 in 293T cells was associated with increased polyubiquitination of IKKγ (FIG. 5, Panel C).

For assay [2], the target named is T3, p76 T6Ig/C-m (E313A/E316A and E806A) (human, UniProt Q9UDY8 150-824, Avi-tag biotinylated in vivo by co-expressed BirA).
T3 construct: domain: p76 cleavage fragment
T3 sequence (looked up): T2 sequence (looked up) with E657A
The assay can be described thus: bio-IP from HEK293T cells, anti-TRAF6 immunoblot.
Description: as §1, §2

B1: BCL10 (other, UniProt O95999 1-233, looked up)
chain: MEPTAPSLTEEDLTEVKKDALENLRVYLCEKIIAERHFDHLRAKKILSREDTEEISCRTSSRKRAGKLLDYLQENPKGLDTLVESIRREKTQNFLIQKITDEVLKLRNIKLEHLKGLKCSSCEPFPDGATNNLSRSNSDESNFSEKLRASTVMYHPEGESSTTPFFSTNSSLNLPVLEVGRTENTIFSSTTLPRPGDPGAPPLPPDLQLEEEGTCANSSEMFLPLRSRTVSRQ
notes: Co-precipitated from lysates of human cell lines
For B1, the binding result in assay [1] is given as “binds”.

B2: TRAF6 (other, UniProt Q9Y4K3 1-522, looked up)
chain: MSLLNCENSCGSSQSESDCCVAMASSCSAVTKDDSVGGTASTGNLSSSFMEEIQGYDVEFDPPLESKYECPICLMALREAVQTPCGHRFCKACIIKSIRDAGHKCPVDNEILLENQLFPDNFAKREILSLMVKCPNEGCLHKMELRHLEDHQAHCEFALMDCPQCQRPFQKFHINIHILKDCPRRQVSCDNCAASMAFEDKEIHDQNCPLANVICEYCNTILIREQMPNHYDLDCPTAPIPCTFSTFGCHEKMQRNHLARHLQENTQSHMRMLAQAVHSLSVIPDSGYISEVRNFQETIHQLEGRLVRQDHQIRELTAKMETQSMYVSELKRTIRTLEDKVAEIEAQQCNGIYIWKIGNFGMHLKCQEEEKPVVIHSPGFYTGKPGYKLCMRLHLQLPTAQRCANYISLFVHTMQGEYDSHLPWPFQGTIRLTILDQSEAPVRQNHEEIMDAKPELLAFQRPTIPRNPKGFGYVTFMHLEALRQRTFIKDDTLLVRCEVSTRFDMGSLRREGFQPRSTDAGV
notes: as for B1
As to B2, the binding result is given as “binds” with p76 T6Ig-m (E313A/E316A) and “no binding” in assay [2].
